Experimental data from patent US9169496B2, “Method for the enzymatic production of butadiene” (Scientist of Fortune, S.A., priority 2011, dated 2015).

What was measured:
[1] = Crotonyl-CoA reductase assay, NADPH decrease at 340 nm; format: biochemical; details: 5 mM trans crotonyl-CoA, 0.1-0.4 mM NADPH, 0.5-1 mg/ml enzyme, 37° C., pH 7.5
Source text: Sequences of short-chain dehydrogenases/reductases inferred from the genomes of prokaryotic organisms were generated by oligonucleotide concatenation to fit the codon usage of E. coli. […] The genes thus synthesized were cloned in a pET25b expression vector and the proteins were produced according to the protocol described in Example 1.

[2] = Screening for crotyl alcohol phosphorylation activity (pyruvate kinase/lactate dehydrogenase coupled ADP assay); format: biochemical; details: 37° C.; for Activity, micromole/min · mg protein: 50 mM crotyl alcohol (cis and trans mixture), 5 mM ATP, 0.05 mg/ml enzyme, pH 7.5; for ADP production in the presence of crotyl alcohol: 50 mM crotyl alcohol
Procedure: The release of ADP that is associated with crotyl alcohol phosphorylation was quantified using the pyruvate kinase/lactate dehydrogenase coupled assay (FIG. 5). The purified 4-methyl-5-(2-hydroxyethyl)thiazole kinases from Escherichia coli (SEQ ID NO:2), Bacillus subtilis (SEQ ID NO:1), Rhizobium leguminosarum (SEQ ID NO:3) were evaluated for their ability to phosphorylate crotyl alcohol releasing ADP. The studied enzymatic reaction was carried out under the following conditions at 37° C.: • 50 mM Tris-HCl pH 7.5 • 10 mM MgCl2 • 100 mM KCl • 5 mM ATP • 0.4 mM NADH • 1 mM Phosphoenolpyruvate • 3 U/ml Lactate dehydrogenase • 1.5 U/ml Pyruvate kinase • 50 mM crotyl alcohol, mixture cis and trans • The pH was adjusted to 7.5
Each assay was started by addition of a particular enzyme at a concentration 0.05 mg/ml and the disappearance of NADH was monitored by following the absorbance at 340 nm.

Molecule | Activity, μmol/min/mg protein [1] | Activity, micromole/min · mg protein [2] | ADP production in the presence of crotyl alcohol [2]
Short chain alcohol dehydrogenase-like protein from Marinobacter sp. ELB17 (SEQ ID NO: 15): short-chain dehydrogenase from Marinobacter sp. ELB17 (Uniprot A3JCC5) (protein, Marinobacter sp. ELB17) MNYFVTGGTGFIGRFLIARLLARGAIVHVLVREQSVQKLADLREKLGADEKQIKAVVGDLTAPGLGLDKKTLKQLSGKIDHFFHLAAIYDMSASEESQQAANIDGTRAAVAAAEALGAGIFHHVSSIAVAGLFKGTFREDMFAEAGKLDHPYFSTKHESERVVRDECKLPFRIYRPGMVIGDSATGEMDKVDGPYYFFKMIQKIRGALPQWVPTIGLEGGRLNIVPVNFVADALDHIAHLPDEDGKCFHLVDSDPYKVGEILNIFCEAGHAPKMGMRIDSRMFGFVPPFIRQSLKNLPPVKRMGRALLDDLGIPASVLSFINYPTRFDARETERVLQGTGIEVPRLPDYAPVIWDYWERNLDPDLFTDRTLRGTVEGKVCVVTGATSGIGLATAEKLADAGAILVIGARTQETLDQVSAQLNARGADVHAYQCDFADMDACDRFIQTVSENHGAVDVLINNAGRSIRRSLDKSFDRFHDFERTMQLNYFGSLRLIMGFAPAMLERRRGHIINISSIGVLTNAPRFSAYVASKAALDSFSRCAAAEWSDRHVCFTTINMPLVKTPMIAPTKIYDSVPTLSPEEAADMVVNAIVYRPKRIATRMGVFAQVLNAVAPKASEILMNTGYKMFPDSMPKKGKEVSAEKGASTDQVAFAAIMRGIHW | 1.2 μmol/min/mg protein |  | 
B. subtilis: purified 4-methyl-5-(2-hydroxyethyl)thiazole kinase from Bacillus subtilis (SEQ ID NO:1) (protein, listed as Bacillus subtilis) MDAQSAAKCLTAVRRHSPLVHSITNNVVTNFTANGLLALGASPVMAYAKEEVADMAKIAGALVLNIGTLSKESVEAMIIAGKSANEHGVPVILDPVGAGATPFRTESARDIIREVRLAAIRGNAAEIAHTVGVTDWLIKGVDAGEGGGDIIRLAQQAAQKLNTVIAITGEVDVIADTSHVYTLHNGHKLLTKVTGAGCLLTSVVGAFCAVEENPLFAAIAAISSYGVAAQLAAQQTADKGPGSFQIELLNKLSTVTEQDVQEWATIERVTVS |  | 0.014 micromole/min · mg protein | 
Short chain alcohol dehydrogenase-like protein from Marinobacter manganoxydans (SEQ ID NO: 14): short-chain dehydrogenase from Marinobacter manganoxydans (Uniprot G6YQS9) (protein, Marinobacter manganoxydans) MNYFLTGGTGFIGRFLVEKLLARGGTVHVLVREQSQDKLDKLRERWGADETQVKAVIGDLTSKNLGIDAKTMKALKGKIDHFFHLAAVYDMGADEEAQQATNIEGTRAAVNAAEAMGAKHFHHVSSIAAAGLFKGIFREDMFEEAEKLDHPYLRTKHESEKVVREECKVPFRIYRPGMVIGHTATGEMDKVDGPYYFFKMIQKIRHALPQWVPTIGVEGGRLNIVPVDFVVNAMDHIAHLEGEDGKCFHLVDTDPYKVGEILNIFSEAGHAPRMGMRIDSRMFGFIPPFIRQSLKNLPPVKRLTSAILDDMGIPPSVMSFINYPTRFDARETERVLKGTGIEVPRLPDYAPVIWDYWERNLDPDLFKDRTLKGTVEGRVCVVTGATSGIGLATAQKLADAGAILVIGARKLERLKEVAAELESRGASVHAYPCDFSDMDACDEFVKTVLDNHGQVDVLVNNAGRSIRRSLDLSFDRFHDFERTMQLNYFGSVRLIMGFAPKMLENRRGHVVNISSIGVLTNAPRFSAYVASKSALDAFSR | 7.5 μmol/min/mg protein |  | 
E. coli: purified 4-methyl-5-(2-hydroxyethyl)thiazole kinase from Escherichia coli (SEQ ID NO:2) (protein, E. coli) MQVDLLGSAQSAHALHLFHQHSPLVHCMTNDVVQTFTANTLLALGASPAMVIETEEASQFAAIASALLINVGTLTQPRAQAMRAAVEQAKSSQTPWTLDPVAVGALDYRRHFCHELLSFKPAAIRGNASEIMALAGIANGGRGVDTTDAAANAIPAAQTLARETGAIVVVTGEMDYVTDGHRIIGIHGGDPLMTKVVGTGCALSAVVAACCALPGDTLENVASACHWMKQAGERAVARSEGPGSFVPHFLDALWQLTQEVQA |  | 0.220 micromole/min · mg protein | reproducible and significant increase in ADP production
Short chain alcohol dehydrogenase-like protein from Hahella chejuensis: short-chain dehydrogenase from Hahella chejuensis (Uniprot Q2SCE0; SEQ ID NO: 17) (protein, listed as Hahella chejuensis) MNYFVTGGTGFIGRFLVPKLLKRGGTVYLLVREASLPKLDELRERWNASDEQVVGVVGDLAQPMLGVSEKDAAMLRGKVGHFFHLAAIYDMQASAESQEQANIEGTRNAVKLADSLKAACFHHVSSIAAAGLYRGIFREDMFEEAEKLDNPYLRTKHESEKVVREECQTPWRVYRPGMVVGHSKTGEIDKIDGPYYFFKLIQKLRSALPQWMPTVGLEGGRINIVPVDFVVDAMDHIAHAEGEDGKCFHLTDPDPYKVGEILNIFAEAGHAPKMAMRIDARMFGFIPPMIRQGIARLPPVQRMKNAVLNDLGIPDEVMSFINYPTRFDNRETERLLKGTAIAVPRLQDYSPAIWDYWERHLDPDLHKDRTLRGAVEGRVCVITGATSGIGLSAARKLAEAGAKVVIAARTLEKLQEVKKELEELGGEVYEYSVDLSDLEDCDRFVANVLKDLGHVDVLVNNAGRSIRRSIQHAFDRFHDFERTMQLNYFGSLRLIMGFAPSMLERRRGHIVNISSIGVLTNAPRFSAYVASKAALDAFSRCAAAEFSDKNVTFTTINMPLVRTPMISPTKIYDSVPTLTPEEAADLVAEAIIHRPKRIATRLGVFAQVLHSMAPKFSEIIMNTGFKMFPDSSAATGGKDGEKPKVSTEQVAFAAIMRGIHW | 4.9 μmol/min/mg protein |  | 
Rh. leguminosarum: purified 4-methyl-5-(2-hydroxyethyl)thiazole kinase from Rhizobium leguminosarum (SEQ ID NO:3) (protein, listed as Rhizobium leguminosarum) MQTRTTPGAMLKAMREKPPLVQCITNYVAMNIAANVLLAAGASPAMVHAAEEAGEFAAIASALTINIGTLSTQWIDGMQAAAKAATSAGKPWVLDPVAHYATAFRRNAVAELLALKPTIIRGNASEIIALAGGESRGQGVDSRDPVEQAEGSARWLAERQRAVVAVTGAVDFVTDGERAVRIEGGSALMPQVTALGCSLTCLVGAFAATAPEDIFGATVAALSTFAIAGEEAALGAAGPGSFSWRFLDALAALDAETLDARARISAA |  | 0.087 micromole/min · mg protein | reproducible and significant increase in ADP production
Short chain alcohol dehydrogenase-like protein from Marinobacter algicola (SEQ ID NO: 16): short-chain dehydrogenase from Marinobacter algicola (Uniprot A6EUH6) (protein, Marinobacter algicola DG893) MNYFLTGGTGFIGRFLVEKLLARGGTVHVLVREQSQEKLDKLRERWGADESRVKAVIGDLTSPNLGIDAKTMKSLKGNIDHFFHLAAVYDMGADEKSQQATNIEGTHSAVNAAAAMEAGCFHHVSSIAAAGLFKGTFREDMFEEAEKLDHPYLLTKHESEKVVRESCKVPFRIYRPGMVVGHSKTGEMDKVDGPYYFFKMIQKIRHALPQWVPTIGIEGGRLNIVPVDFVVNAMDHIAHLKGEDGNCFHLVDSDPYKVGEILNIFSEAGHAPRMAMRIDSRMFGFVPPFIRQSLKNLPPVKRLTTALLDDMGIPPSVLSFINYPTRFDARETERVLKDTGIVVPRLESYAAVLWDFWERNLDPDLFKDRTLRGTVEGKVCVITGGTSGIGLATAQKLADAGAILVIGARKKERLMEVAAELEARGGNVHAYQCDFADMDDCDRFVKTVLDNHGHVDVLVNNAGRSIRRSLALSFDRFHDFERTMQLNYFGSVRLIMGFAPAMLERRRGHVVNISSIGVLTNAPRFSAYVASKSALDTFSRCAAAEWSDRNVTFTTINMPLVKTPMIAPTKIYDSVPTLTPDEAAEMVADAIVYRPKRIATRLGIFAQVMQALAPKMGEIVMNTGYRMFPDSPAAAGSRSGAKPKVSSEQVAFAAIMRGIYW | 4 μmol/min/mg protein |  | 
